Patent publication US20230414780A1 (VECT HORUS, published 2023)

Experiments:
[1] = molecular target: T1, human TfR ectodomain fused to a mouse IgG1 Fc fragment (human, UniProt P02786 89-760); assay: SPR, at equilibrium
T1 construct: extracellular domain; ectodomain fused to the N-terminal end of the Fc, made in-house; not shown: mouse IgG1 Fc fragment
Protocol: (§1) Binding properties of some VHHs were also evaluated using Surface Plasmon Resonance (SPR) experiments. The human, mouse and rhesus monkey TfR (having respectively GeneBank number NM_003234.2, NM_011638, NC_041755.1) ectodomains were fused to the N-terminal end of a mouse IgG1 Fc fragment and the recombinant proteins were produced and purified in-house. Interaction of VHHs with the receptors was tested using a Biacore T200 (GE Healthcare). Receptors were immobilized on an HC 1500M or a CM5 sensor chip (Xantec) either directly or on an anti-mouse IgG previously immobilized. VHHs were injected over flowcell by using the single-cycle kinetic or the multiple-cycle kinetic methods.

[2] = molecular target: T1, human TfR ectodomain fused to a mouse …; assay: SPR, kinetic
Protocol: as §1

[3] = molecular target: T2, mouse TfR ectodomain fused to a mouse IgG1 Fc fragment (mouse, UniProt Q62351 89-763); assay: SPR, kinetic
T2 construct: extracellular domain; not shown: mouse IgG1 Fc fragment
Protocol: as §1

[4] = molecular target: T3, rhesus monkey transferrin receptor (rhTfR) fused to EGFP, on CHO cells (rhesus monkey); assay: apparent Kd, flow cytometry, CHO cells
T3 construct: whole, on cells; also called rhesus monkey TfR
Protocol: (§2) The binding properties of VHHs with affinity for the TfR from different species (i.e., human (h), mouse (m) and rhesus monkey (rh)) were tested using flow cytometry, and apparent affinities (Kd app) were determined. All experiments were performed in 96 well plates using 2×10⁵ cells/well, at 4° C. with shaking. CHO cell lines expressing the hTfR, mTfR or rhTfR fused to EGFP were saturated with PBS/BSA 2% solution during 30 min to avoid nonspecific binding, followed by incubation with purified VHHs at increasing concentrations for 1 hr. After one wash in PBS/BSA 2%, cells were incubated for 1 hr with an anti-6His tag antibody (mouse), washed twice with PBS/BSA 2%, and incubated for 1 hr with an Alexa647-conjugated anti-mouse secondary antibody. After two last washes in PBS/BSA 2%, cells were fixed by incubation for 15 min with PBS/PFA 2%, washed once with PBS and finally resuspended in PBS. Fluorescence levels were assessed using an Attune NxT flow cytometer (Thermo Fisher Scientific). Experimental data were fitted with GraphPad Prism® software using a nonlinear fit to determine the apparent Kd constants. […] Table 5 hereafter summarizes apparent Kd obtained for the tested VHHs.

[5] = molecular target: T4, mouse transferrin receptor (mTfR) fused to EGFP, on CHO cells (mouse, UniProt Q62351 1-763); assay: apparent Kd, flow cytometry, CHO cells
T4 construct: whole, on cells; also called mouse TfR; CHO-mTfR-EGFP; not shown: EGFP
Protocol: as §2

[6] = molecular target: T5, human transferrin receptor (hTfR) fused to EGFP, on CHO cells (human, UniProt P02786 1-760); assay: apparent Kd, flow cytometry, CHO cells
T5 construct: whole, on cells; also called human TfR; CHO-hTfR-EGFP; not shown: EGFP from pEGFP-C1 vector, fused to the N-terminal (intracellular) end of hTfR
Protocol: as §2

[7] = molecular target: T6, rhesus monkey TfR ectodomain fused to a mouse IgG1 Fc fragment (rhesus monkey, UniProt I0FKY7 89-760); assay: SPR, at equilibrium
T6 construct: extracellular domain; not shown: mouse IgG1 Fc fragment
Protocol: as §1

[8] = molecular target: T6, rhesus monkey TfR ectodomain fused to a …; assay: SPR, kinetic
Protocol: as §1

T4 sequence (Q62351 whole entry, the tested form may be a part): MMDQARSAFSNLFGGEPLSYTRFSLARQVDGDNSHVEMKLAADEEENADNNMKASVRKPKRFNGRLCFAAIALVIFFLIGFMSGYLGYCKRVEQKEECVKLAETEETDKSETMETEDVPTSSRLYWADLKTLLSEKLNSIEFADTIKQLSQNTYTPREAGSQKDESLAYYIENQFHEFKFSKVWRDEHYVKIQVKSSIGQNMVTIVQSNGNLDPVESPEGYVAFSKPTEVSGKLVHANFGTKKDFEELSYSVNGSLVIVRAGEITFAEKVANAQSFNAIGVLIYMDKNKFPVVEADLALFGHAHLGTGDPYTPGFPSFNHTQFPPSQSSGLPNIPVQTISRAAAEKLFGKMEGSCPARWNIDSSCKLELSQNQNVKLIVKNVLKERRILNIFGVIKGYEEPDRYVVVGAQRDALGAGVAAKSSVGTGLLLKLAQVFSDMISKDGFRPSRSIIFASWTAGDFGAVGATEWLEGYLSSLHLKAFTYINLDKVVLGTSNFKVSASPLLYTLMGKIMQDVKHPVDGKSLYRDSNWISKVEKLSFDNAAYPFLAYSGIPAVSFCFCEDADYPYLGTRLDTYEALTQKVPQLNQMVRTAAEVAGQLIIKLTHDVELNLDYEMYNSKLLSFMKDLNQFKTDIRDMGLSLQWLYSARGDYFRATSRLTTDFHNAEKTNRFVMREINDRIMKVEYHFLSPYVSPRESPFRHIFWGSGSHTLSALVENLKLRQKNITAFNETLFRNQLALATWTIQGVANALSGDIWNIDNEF
T1 sequence (P02786 89-760): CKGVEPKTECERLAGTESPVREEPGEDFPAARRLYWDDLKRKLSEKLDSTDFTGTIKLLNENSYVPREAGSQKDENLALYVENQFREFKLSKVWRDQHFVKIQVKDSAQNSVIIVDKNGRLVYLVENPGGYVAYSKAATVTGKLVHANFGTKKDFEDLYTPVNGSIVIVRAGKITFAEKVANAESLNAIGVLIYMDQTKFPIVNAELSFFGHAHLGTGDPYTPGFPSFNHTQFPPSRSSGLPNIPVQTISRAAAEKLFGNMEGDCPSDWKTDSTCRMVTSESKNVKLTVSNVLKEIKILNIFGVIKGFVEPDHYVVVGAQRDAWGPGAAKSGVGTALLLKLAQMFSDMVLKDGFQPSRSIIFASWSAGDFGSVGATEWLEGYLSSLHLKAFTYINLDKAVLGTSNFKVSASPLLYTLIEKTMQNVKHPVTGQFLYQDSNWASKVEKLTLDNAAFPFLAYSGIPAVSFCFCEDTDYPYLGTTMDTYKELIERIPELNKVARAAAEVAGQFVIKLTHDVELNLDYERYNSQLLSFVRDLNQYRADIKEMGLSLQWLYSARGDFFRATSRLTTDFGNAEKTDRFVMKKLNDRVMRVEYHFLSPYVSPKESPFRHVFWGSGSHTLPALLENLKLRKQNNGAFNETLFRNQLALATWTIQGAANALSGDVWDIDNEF
T2 sequence (Q62351 89-763): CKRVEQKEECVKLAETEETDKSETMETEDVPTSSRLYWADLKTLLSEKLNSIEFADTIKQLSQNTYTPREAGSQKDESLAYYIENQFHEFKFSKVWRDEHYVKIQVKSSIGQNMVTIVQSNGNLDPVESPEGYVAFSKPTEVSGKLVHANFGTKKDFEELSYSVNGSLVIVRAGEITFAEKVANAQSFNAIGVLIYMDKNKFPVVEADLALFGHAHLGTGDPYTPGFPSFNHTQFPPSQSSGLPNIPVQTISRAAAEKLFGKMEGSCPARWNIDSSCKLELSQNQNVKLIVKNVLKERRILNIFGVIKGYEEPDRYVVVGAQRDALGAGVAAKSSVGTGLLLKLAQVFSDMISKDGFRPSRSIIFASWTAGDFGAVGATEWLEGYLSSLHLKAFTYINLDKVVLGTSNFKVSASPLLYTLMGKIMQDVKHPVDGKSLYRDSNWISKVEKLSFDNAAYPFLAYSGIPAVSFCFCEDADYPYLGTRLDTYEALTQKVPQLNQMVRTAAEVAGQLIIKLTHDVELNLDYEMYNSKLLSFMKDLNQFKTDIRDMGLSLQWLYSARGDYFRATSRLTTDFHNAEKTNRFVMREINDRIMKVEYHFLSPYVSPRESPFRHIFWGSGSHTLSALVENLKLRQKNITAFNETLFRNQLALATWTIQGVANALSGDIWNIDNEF
T5 sequence (P02786 whole entry, the tested form may be a part): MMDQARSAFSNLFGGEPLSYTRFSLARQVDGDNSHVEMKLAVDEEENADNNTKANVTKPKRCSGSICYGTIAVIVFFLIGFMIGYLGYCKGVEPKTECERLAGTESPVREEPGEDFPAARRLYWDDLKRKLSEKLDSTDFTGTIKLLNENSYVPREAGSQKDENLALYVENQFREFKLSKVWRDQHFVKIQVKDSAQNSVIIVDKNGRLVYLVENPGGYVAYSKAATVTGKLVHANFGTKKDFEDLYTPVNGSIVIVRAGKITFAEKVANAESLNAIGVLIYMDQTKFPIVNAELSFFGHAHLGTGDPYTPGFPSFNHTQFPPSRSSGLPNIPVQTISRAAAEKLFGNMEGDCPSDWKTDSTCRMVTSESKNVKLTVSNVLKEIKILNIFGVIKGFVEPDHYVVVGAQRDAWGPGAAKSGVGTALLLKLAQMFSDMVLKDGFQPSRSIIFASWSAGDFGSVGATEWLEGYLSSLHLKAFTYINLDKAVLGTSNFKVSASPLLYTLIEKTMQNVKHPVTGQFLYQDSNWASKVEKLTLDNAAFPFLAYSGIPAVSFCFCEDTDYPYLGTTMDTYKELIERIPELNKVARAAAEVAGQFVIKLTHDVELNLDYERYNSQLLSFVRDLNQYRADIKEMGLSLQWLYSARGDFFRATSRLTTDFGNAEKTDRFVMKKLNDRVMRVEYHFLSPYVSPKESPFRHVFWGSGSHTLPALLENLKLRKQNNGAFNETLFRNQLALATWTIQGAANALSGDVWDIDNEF

B1: C5^V16h20 (VHH)
VHH: EVQLVESGGGVVQPGGSLRLSCAASGTDFSINFIRWYRQAPGKGLEFVAGFTATGNTNYADSVKGRFTISRDNAKNAVYLQMNSLRPEDTAVYYCYILDKWGQGTQVTVSS
B1 was tested, and the Kd [1] was 115 nM, the Kd [2] was 112 nM and the koff [2] was 0.0399 s⁻¹. The kon [2] was 360000 M⁻¹ s⁻¹, the Kd [3] was 301 nM and the koff [3] was 0.075 s⁻¹. It also gave a kon [3] of 251000 M⁻¹ s⁻¹, a Kd [4] of 793 nM and a Kd [5] of 622 nM. For the same binder, the Kd [6] was 23 nM.

B2: C5^V30 (VHH)
VHH: EVQLVESGGGVVQPGGSLKLSCVASGTDKSINFIRWYRQAPGKQREFVAGFTATGNTNYADSMKGRFTISRDNTKNAVYLQIDSLKPEDTAVYYCYMLDKWGQGTQVTVSS
In the case of B2, the Kd [1] is reported as 112 nM, the Kd [7] is reported as 339 nM and the Kd [2] is reported as 94 nM. The koff [2] was 0.03 s⁻¹, the kon [2] was 319000 M⁻¹ s⁻¹ and the Kd [8] was 373 nM. The koff [8] was 0.192 s⁻¹, the kon [8] was 515000 M⁻¹ s⁻¹ and the Kd [4] was 362 nM. The Kd [5] was 696 nM and the Kd [6] was 31 nM.

B3: C5^V32 (VHH)
VHH: EVQLVESGGGVVQPGGSLKLSCVASGTDFSINFIRWYSQAPGKQREFVAGFTATGNTNYADSMKGRLTISRDNTKNAVYLQIDSLKPEDTAVYYCYMLGKWGQGTQVTVSS
For B3, the Kd [1] was 38.6 nM, the Kd [7] was 265 nM and the Kd [2] was 35.8 nM. The koff [2] was 0.0247 s⁻¹, the kon [2] was 692000 M⁻¹ s⁻¹ and the Kd [8] was 358 nM. It also gave a koff [8] of 0.266 s⁻¹, a kon [8] of 745000 M⁻¹ s⁻¹ and a Kd [4] of 653 nM. It also gave a Kd [5] of 1740 nM and a Kd [6] of 66 nM.

B4: C5^V31 (VHH)
VHH: EVQLVESGGGVVQPGGSLKLSCVASGTDRSINFIRWYRQAPGKQREFVAGFTATGNTNYADSMKGRFTISRDNTKNAVYLQIDSLKPEDTAVYYCYMLDKWGQGTQVTVSS
In the case of B4, the Kd [1] is reported as 64.8 nM, the Kd [7] is reported as 242 nM and the Kd [2] is reported as 47.5 nM. It also gave a koff [2] of 0.0182 s⁻¹, a kon [2] of 383000 M⁻¹ s⁻¹ and a Kd [8] of 234 nM. For the same binder, the koff [8] was 0.123 s⁻¹, the kon [8] was 524000 M⁻¹ s⁻¹ and the Kd [4] was 256 nM. The Kd [5] was 445 nM and the Kd [6] was 11 nM.

B5: B8^V12 (VHH)
VHH: EVQLVESGGGVVQPGGSLRLSCAASGEIFYINFMRWYRQAPGKQREWVAGFTRDGSTNYPDSAKGRFTISRDNAKNTVYLQIDSLKPEDTAVYYCYMLDTWGQGTQVTVSS
B5 gave a Kd [7] of 25.1 nM, a Kd [2] of 0.984 nM and a koff [2] of 0.00169 s⁻¹. For the same binder, the kon [2] was 1.04e+06 M⁻¹ s⁻¹, the Kd [8] was 12.1 nM and the koff [8] was 0.0119 s⁻¹. For the same binder, the kon [8] was 997000 M⁻¹ s⁻¹, the Kd [4] was 6.9 nM and the Kd [5] was 743 nM. For the same binder, the Kd [6] was 4.7 nM.

B6: B8^V33 (VHH)
VHH: EVQLVESGGGVVQPGGSLRLSCAASGEIFSINFMRWYRQAPGKQREWVAGFTRDGSTNYPDSAKGRFTISRDNAKNTVYLQIDSLKPEDTAVYYCYMLKTWGQGTQVTVSS
With B6 the Kd [1] was 46.5 nM, the Kd [7] was 86 nM and the Kd [2] was 46.2 nM. It also gave a koff [2] of 0.0328 s⁻¹, a kon [2] of 710000 M⁻¹ s⁻¹ and a Kd [8] of 73.4 nM. For the same binder, the koff [8] was 0.0509 s⁻¹, the kon [8] was 693000 M⁻¹ s⁻¹ and the Kd [4] was 170 nM. It also gave a Kd [5] of 230 nM and a Kd [6] of 50 nM.

B7: B8^V34 (VHH)
VHH: EVQLVESGGGVVQPGGSLRLSCAASGEIRSINFMRWYRQAPGKQREWVAGFTRDGSTNYPDIAKGRFTISRDNAKNTVYLQIDSLKPEDTAVYYCYMLDTWGQGTQVTVSS
B7 showed a Kd [1] of 32.4 nM, a Kd [7] of 49.4 nM and a Kd [2] of 33.3 nM. For the same binder, the koff [2] was 0.0244 s⁻¹, the kon [2] was 733000 M⁻¹ s⁻¹ and the Kd [8] was 51.5 nM. For the same binder, the koff [8] was 0.102 s⁻¹, the kon [8] was 1.97e+06 M⁻¹ s⁻¹ and the Kd [4] was 68 nM. It also gave a Kd [5] of 1070 nM and a Kd [6] of 13 nM.

B8: B8^V36 (VHH)
VHH: EVQLVESGGGVVQPGGSLRLSCAASGEIFSINVMRWYRQAPGKQREWVAGFTRDGSTNYPDSAKGRFTISRDNAKNTVYLQIDSLKPEDTAVYYCYMLDTWGQGTQVTVSS
B8 gave a Kd [1] of 39.2 nM, a Kd [7] of 206 nM and a Kd [2] of 33.3 nM. The koff [2] was 0.019 s⁻¹, the kon [2] was 571000 M⁻¹ s⁻¹ and the Kd [4] was 130 nM. For the same binder, the Kd [5] was 891 nM and the Kd [6] was 27 nM.

B9: B8^V35 (VHH)
VHH: EVQLVESGGGVVQPGGSLRLSCAASGEIRSINFMRWYRQAPGKQREWVAGFTRDGSLNYPDSAKGRFTISRDNAKNTVYLQIDSLKPEDTAVYYCYMLDTWGKGTQVTVSS
With B9 the Kd [1] was 23.9 nM, the Kd [7] was 34.4 nM and the Kd [2] was 20.6 nM. For the same binder, the koff [2] was 0.0143 s⁻¹, the kon [2] was 698000 M⁻¹ s⁻¹ and the Kd [8] was 33.7 nM. The koff [8] was 0.0303 s⁻¹, the kon [8] was 898000 M⁻¹ s⁻¹ and the Kd [4] was 23 nM. The Kd [5] was 513 nM and the Kd [6] was 7.1 nM.

B10: B8^V29 (VHH)
VHH: EVQLVESGGGVVQPGGSLRLSCAASGEIFSINFMRWYRQAPGKQREWVAGFTRDGSTNYPDSAKGRFTISRDNAKNTVYLQIDSLKPEDTAVYYCYMADTWGQGTQVTVSS
B10 showed a Kd [1] of 21.8 nM, a Kd [7] of 100 nM and a Kd [2] of 44 nM. For the same binder, the koff [2] was 0.0169 s⁻¹, the kon [2] was 682000 M⁻¹ s⁻¹ and the Kd [8] was 202 nM. The koff [8] was 0.0942 s⁻¹, the kon [8] was 1.16e+06 M⁻¹ s⁻¹ and the Kd [4] was 72 nM. It also gave a Kd [5] of 1670 nM and a Kd [6] of 9 nM.

B11: B8^V27 (VHH)
VHH: EVQLVESGGGVVQPGGSLRLSCAASGEIFSINFMRWYRQAPGKQREWVAGFTRDGSTVYPDSAKGRFTISRDNAKNTVYLQIDSLKPEDTAVYYCYMLDTWGQGTQVTVSS
In the case of B11, the Kd [1] is reported as 3.22 nM, the Kd [7] is reported as 36.8 nM and the Kd [2] is reported as 7.29 nM. It also gave a koff [2] of 0.00722 s⁻¹, a kon [2] of 1.01e+06 M⁻¹ s⁻¹ and a Kd [8] of 53.8 nM. It also gave a koff [8] of 0.0206 s⁻¹, a kon [8] of 455000 M⁻¹ s⁻¹ and a Kd [4] of 16 nM. The Kd [5] was 760 nM and the Kd [6] was 6.8 nM.

B12: B8^V16 (VHH)
VHH: EVQLVESGGGVVQPGGSLRLSCAASGEIFSINFMRWYRQAPGKQREQVAGFTRDGSTNYPDSAKGRFTISRDNAKNTVYLQIDSLKPEDTAVYYCYMLDTWGQGTQVTVSS
Binder B12 has a Kd [1] of 76.3 nM, a Kd [7] of 222 nM and a Kd [2] of 12.8 nM. It also gave a koff [2] of 0.0133 s⁻¹, a kon [2] of 1.03e+06 M⁻¹ s⁻¹ and a Kd [8] of 135 nM. For the same binder, the koff [8] was 0.0438 s⁻¹, the kon [8] was 325000 M⁻¹ s⁻¹ and the Kd [4] was 307 nM. The Kd [5] was 3.6 nM and the Kd [6] was 6.2 nM.

B13: B8^V31 (VHH)
VHH: EVQLVESGGGVVQPGGSLRLSCAASGEIKSINFMRWYRQAPGKQREWVAGFTRDGSTNYPDSAKGRFTISRDNAKNTVYLQIDSLKPEDTAVYYCYMLDTWGQGTQVTVSS
B13 showed a Kd [1] of 63.8 nM, a Kd [7] of 35.4 nM and a Kd [2] of 60.8 nM. It also gave a koff [2] of 0.0221 s⁻¹, a kon [2] of 364000 M⁻¹ s⁻¹ and a Kd [8] of 32.1 nM. The koff [8] was 0.0509 s⁻¹, the kon [8] was 1.59e+06 M⁻¹ s⁻¹ and the Kd [4] was 20 nM. It also gave a Kd [5] of 1690 nM and a Kd [6] of 14 nM.

B14: B8^V32 (VHH)
VHH: EVQLVESGGGVVQPGGSLRLSCAASGEIRSINFMRWYRQAPGKQREWVAGFTRDGSTNYPDSAKGRFTISRDNAKNTVYLQIDSLKPEDTAVYYCYMLDTWGQGTQVTVSS
B14 gave a Kd [1] of 36.5 nM, a Kd [7] of 35.1 nM and a Kd [2] of 30.1 nM. For the same binder, the koff [2] was 0.0126 s⁻¹, the kon [2] was 420000 M⁻¹ s⁻¹ and the Kd [8] was 32.7 nM. The koff [8] was 0.0418 s⁻¹, the kon [8] was 1.28e+06 M⁻¹ s⁻¹ and the Kd [4] was 14 nM. For the same binder, the Kd [5] was 1210 nM and the Kd [6] was 7.1 nM.
